Assay results published in patent publication US20230014722A1 (CSTONE PHARMACEUTICALS, published 2023).
Numbering of substitutions follows the chain as printed. Names may count otherwise.

T1: mouse PD-1 on transfected 293F cells (mouse, UniProt Q02242 25-288)
T1 construct: whole, on cells; also called cell surface mouse PD-1
T1 sequence (looked up): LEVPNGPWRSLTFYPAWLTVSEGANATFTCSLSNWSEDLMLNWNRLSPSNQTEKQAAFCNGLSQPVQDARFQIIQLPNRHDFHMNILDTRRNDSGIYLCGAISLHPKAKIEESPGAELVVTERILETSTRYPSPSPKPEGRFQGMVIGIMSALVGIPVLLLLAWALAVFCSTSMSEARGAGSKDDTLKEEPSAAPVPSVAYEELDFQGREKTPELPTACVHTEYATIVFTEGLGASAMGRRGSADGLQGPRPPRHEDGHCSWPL

T2: mouse PD-1 antigen protein of the affinity-maturation screen (mouse, UniProt Q02242 25-167, limits assumed, biotinylated)
T2 sequence (looked up): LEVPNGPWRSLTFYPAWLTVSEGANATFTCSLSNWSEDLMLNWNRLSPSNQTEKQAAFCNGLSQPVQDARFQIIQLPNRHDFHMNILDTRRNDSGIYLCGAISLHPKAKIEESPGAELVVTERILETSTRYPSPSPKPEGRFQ

T3: mouse PD-1 (Sino Biological), coated on plates (mouse, UniProt Q02242 25-167)
T3 sequence (looked up): T2 sequence (looked up)

T4: mPD-1.His (mouse, UniProt Q02242 25-167, limits assumed)
T4 construct: Soluble analyte, probably the extracellular domain; also called mouse PD-1 (SPR analyte)
T4 sequence (looked up): T2 sequence (looked up)

B1: 2E5 (antibody, human IgG4, V domains shown)
VH: QVQLVQSGAEVKKPGSSVKVSCKASGFTFTTYYISWVRQAPGQGLEYLGYINMGSGGTNYNEKFKGRVTITADKSTSTAYMELSSLRSEDTAVYYCAIIGYFDYWGQGTMVTVSS
VL: DVVMTQSPLSLPVTLGQPASISCRSSQSLLDSDGGTYLYWFQQRPGQSPRRLIYLVSTLGSGVPDRFSGSGSGTDFTLKISRVEAEDVGVYYCMQLTHWPYTFGQGTKLEIK
B2: 2G4 (antibody, human IgG4, V domains shown)
VH: B1 VH
VL: B1 VL with G35S
B3: 1H6 (antibody, human IgG4, V domains shown)
VH: B1 VH with I99L
VL: B1 VL
B4: 2C2 (antibody, human IgG4, V domains shown)
VH: B1 VH
VL: B1 VL with G35A
B5: 2B1 (antibody, V domains shown)
VH: B1 VH
VL: B1 VL with G35N
B6: A6W (antibody, V domains shown)
VH: B1 VH with I99L
VL: B1 VL with G35N
B7: 5C4 (antibody, V domains shown)
VH: B1 VH with I99L
VL: B1 VL with G35Q, W99E
B8: 1G10 (antibody, V domains shown)
VH: B1 VH with I99L
VL: B1 VL with G35A
B9: L1I (antibody, V domains shown)
VH: B1 VH
VL: B1 VL with G35N, W99A
notes: also called L11
B10: 8C10 (antibody, V domains shown)
VH: B1 VH
VL: B1 VL with G35Q, W99E, P100N

Target: T5, human PD-1 on transfected cells (human, UniProt Q15116 25-288)
T5 construct: also called CHO-S cells expressing human PD-1; human PD-1 transfected CHO-S cells
Assay: FACS competition on CHO-S cells expressing human PD-1 against biotinylated WBP305BMK1 at 1 µg/ml
Method: (§1) The cells were washed and the second antibody Streptavidin-PE were added and incubated for 30 min at 4° C. The cells were then washed once and resuspended in 1×PBS/1% BSA, and analyzed by flow cytometery (BD).

T5 sequence (Q15116 25-288 limits assumed): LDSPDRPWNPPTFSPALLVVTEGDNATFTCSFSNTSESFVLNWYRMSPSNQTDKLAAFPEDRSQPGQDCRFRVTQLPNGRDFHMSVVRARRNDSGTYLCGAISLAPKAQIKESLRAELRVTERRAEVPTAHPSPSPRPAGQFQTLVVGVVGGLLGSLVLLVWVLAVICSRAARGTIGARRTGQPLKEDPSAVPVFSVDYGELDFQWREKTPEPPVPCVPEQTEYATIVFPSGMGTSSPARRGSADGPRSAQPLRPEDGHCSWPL

IC50 [nM]	Binder
5.84	B1
8.93	B2
8.77	B3
6.55	B4

Target: T5, human PD-1 on transfected cells
Assay: FACS blocking assay: mouse Fc fusion-human PD-L1 binding to human PD-1 transfected CHO-S cells

IC50 [nM]	Binder
2.14	B1
2.23	B2
2.22	B3
2.2	B4

Target: T5, human PD-1 on transfected cells
Assay: FACS, human PD-1 transfected CHO-S cells

EC50 [nM]	Binder
2.2	B1
2.78	B2
2.64	B3
2.36	B4

Target: T1, mouse PD-1 on transfected 293F cells
Assay: FACS, mouse PD-1 transfected 293F cells

EC50 [nM]	Binder
12.9	B1
14.8	B2
15.1	B3
11.8	B4

Target: cynomolgus PD-1 antigen protein of the affinity-maturation screen (cynomolgus)
Assay: capture ELISA, second-round affinity-maturation screen (scFv format likely); unit not given

Bmax	Binder
1.72	B1
1.21	B5
0.0787	B6
0.258	B7
1.72	B2
0.317	B3
1.08	B8
0.0517	B9
1.67	B4
1.11	B10

Target: human PD-1 antigen protein of the affinity-maturation screen (human, UniProt Q15116 25-167, limits assumed, biotinylated)
Assay: as above

human PD-1 antigen protein of the affinity-maturation screen, sequence (Q15116 25-167 limits assumed): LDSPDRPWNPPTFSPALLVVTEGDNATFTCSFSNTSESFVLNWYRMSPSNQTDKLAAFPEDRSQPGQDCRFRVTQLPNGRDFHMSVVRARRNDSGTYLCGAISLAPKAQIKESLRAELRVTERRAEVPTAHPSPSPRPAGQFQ

Bmax	Binder
3.28	B1
3.02	B5
2.57	B6
2.65	B7
3.37	B2
3.35	B3
2.6	B8
1.05	B9
3.17	B4
2.31	B10

Target: T2, mouse PD-1 antigen protein of the …
Assay: as above

Bmax	Binder
0.47	B1
0.339	B5
0.174	B6
0.164	B7
0.479	B2
0.221	B3
0.3	B8
0.416	B4
0.437	B10

Target: T5, human PD-1 on transfected cells
Assay: flow cytometry on CHO-S cells expressing human PD-1, quantitative beads
Method: (§2) Testing antibodies were 1:2 serially diluted in wash buffer (1×PBS/1% BSA) and incubated with cells at 4° C. for 1 h.

Kd [nM]	Binder
0.23	B1
0.38	B2
0.215	B3
0.264	B4

Target: T3, mouse PD-1 (Sino Biological), coated on …
Assay: ELISA, plates coated with mouse PD-1 at 1 µg/ml
Method: (§3) For ELISA, plates (Nunc) were coated with human, cynomolgus or mouse PD-1 (Sino Biological) at 1 μg/ml overnight at 4° C. After blocking and washing, antibodies were serially diluted in blocking buffer and added to the plates and incubated at room temperature for 1 h. The plates were then washed and subsequently incubated with secondary antibody goat anti human IgG HRP (Bethyl) for 1 h. After washing, TMB substrate was added and the reaction was stopped by 2 M HCl. The absorbance at 450 nm was read using a microplate reader (Molecular Device).

EC50 [nM]	Binder
0.37	B1
0.2	B2
0.34	B3
0.41	B4

Target: T5, human PD-1 on transfected cells
Assay: FACS competition on CHO-S cells expressing human PD-1 against biotinylated Keytruda at 1 µg/ml
Method: as §1

IC50 [nM]	Binder
9.52	B1
17.2	B2
17.6	B3
11.1	B4

Target: T6, human PD-1 (Sino Biological), coated on plates (human, UniProt Q15116 25-167)
T6 construct: whole entry named
Assay: ELISA, plates coated with human PD-1 at 1 µg/ml
Method: as §3

T6 sequence (Q15116 25-167 limits assumed): as above

EC50 [nM]	Binder
0.18	B1
0.21	B2
0.2	B3
0.12	B4

Target: T7, human CD28 on a constructed cell line (human, UniProt P10747 19-220)
T7 construct: whole, on cells
Assay: FACS, CD28.CHO-K1 cells, one antibody concentration (not given)
Method: (§4) Constructed cell lines that respectively express human PD-1, CD28, CTLA-4 or ICOS were transferred in to 96-well U-bottom plates (BD) at a density of 2×10⁵ cells/well. Testing antibodies were diluted in wash buffer (1×PBS/1% BSA) and incubated with cells at 4° C. for 1 h. After washing, the secondary antibody goat anti-human IgG Fc FITC (Jackson ImmunoResearch Lab) was added and incubated at 4° C. in the dark for 1 h. The cells were then washed once and resuspended in 1×PBS/1% BSA, and analyzed by flow cytometery (BD) and FlowJo software.

binding result	Binder
no binding	B1
no binding	B2
no binding	B3
no binding	B4

Target: T8, human CTLA-4 on a constructed cell line (human, UniProt P16410 36-223)
T8 construct: whole, on cells
Assay: FACS, CTLA-4.293F cells, one antibody concentration (not given)
Method: as §4

T8 sequence (P16410 36-223): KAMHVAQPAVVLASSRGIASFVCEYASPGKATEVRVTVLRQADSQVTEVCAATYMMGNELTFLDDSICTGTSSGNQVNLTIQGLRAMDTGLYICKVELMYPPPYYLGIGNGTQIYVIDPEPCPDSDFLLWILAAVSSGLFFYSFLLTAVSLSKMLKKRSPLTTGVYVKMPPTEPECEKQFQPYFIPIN

binding result	Binder
no binding	B1
no binding	B2
no binding	B3
no binding	B4

Target: T1, mouse PD-1 on transfected 293F cells
Assay: FACS blocking assay: mouse Fc fusion-mouse PD-L1 binding to mouse PD-1 transfected 293F cells

IC50 [nM]	Binder
13	B1
18.7	B2
20.4	B3
16.7	B4

Target: T9, hPD-1.His (human, UniProt Q15116 25-170)
T9 construct: the SPR text says only human PD-1; also called human PD-1 (SPR analyte)
Assay: SPR (ProteOn XPR36), antibody captured on Protein A, PD-1.His as analyte, 1:1 fit
Excerpt: (§5) Antibodies were characterized for affinity and binding kinetics to PD-1 by SPR assay using ProteOn XPR36 (Bio-Rad). Protein A protein (Sigma) was immobilized to a GLM sensor chip (Bio-Rad) through amine coupling. Purified antibodies were flowed over the sensor chip and captured by the Protein A. The chip was rotated […] and washed with running buffer (1×PBS/0.01% Tween20, Bio-Rad) until the baseline was stable. Seven concentrations of human PD-1 and running buffer were flowed through the sensor chip at a flow rate of 30 μL/min for an association phase of 180 s, followed by 300s dissociation. After regeneration, seven concentration of mouse PD-1 and running buffer were flowed through the sensor chip at a flow rate of 30 μL/min for an association phase of 180 s, followed by 300 s dissociation. The chip was regenerated with pH 1.5 H₃PO₄ after each run. The association and dissociation curve was fit by 1:1 Langmuir binding model using ProteOn software.

T9 sequence (Q15116 25-170): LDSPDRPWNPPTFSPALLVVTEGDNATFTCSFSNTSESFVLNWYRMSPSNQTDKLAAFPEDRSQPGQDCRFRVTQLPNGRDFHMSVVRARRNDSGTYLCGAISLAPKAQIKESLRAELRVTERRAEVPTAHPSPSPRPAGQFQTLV

Kd [nM]	koff [s⁻¹]	kon [M⁻¹ s⁻¹]	Binder
6.13	0.00366	597000	B1
7.09	0.0047	663000	B2
14.3	0.00918	644000	B3
5.64	0.00414	733000	B4

Target: T4, mPD-1.His
Assay: as above
Excerpt: as §5

Kd [nM]	koff [s⁻¹]	kon [M⁻¹ s⁻¹]	Binder
3.99	0.00129	323000	B1
3.89	0.0013	334000	B2
9.37	0.003	320000	B3
6.92	0.00153	221000	B4

Target: cynomolgus PD-1 (Sino Biological), coated on plates (cynomolgus, UniProt B0LAJ3 25-170)
Assay: ELISA, plates coated with cynomolgus PD-1 at 1 µg/ml
Method: as §3

cynomolgus PD-1 (Sino Biological), coated on plates, sequence (B0LAJ3 entry or part of it limits assumed): as the sequence (Q15116 25-170) above, with D2E, P10A, V19L, T35A, Q75R, T144A counted along it

EC50 [nM]	Binder
0.25	B1
0.36	B2
0.28	B3
0.12	B4

Target: T1, mouse PD-1 on transfected 293F cells
Assay: flow cytometry on 293F cells expressing mouse PD-1, quantitative beads
Method: as §2

Kd [nM]	Binder
29	B1
35.1	B2
53.9	B3
17.4	B4
